Measurements published in patent US20100322946A1 (Genentech, published 2010).
Substitutions are numbered along the chain they refer to. Values joined by “and” are separate entries in the source; they are usually repeats but may differ in a detail not shown here. Identical values can stand only once. Like-named read-outs stand apart in the source and are kept apart here.

What was measured:
[1] = target: T1, HER2 extracellular domain (human, UniProt P04626 23-652); assay: Her2 in solution (varied) against DR5 coat
T1 construct: extracellular domain; also called HER2-ECD; Her2-ECD

[2] = target: T2, human VEGF109 (human, UniProt P15692 214-315, limits assumed); assay: BIAcore SPR
T2 construct: also called hVEGF109
T2 sequence (looked up): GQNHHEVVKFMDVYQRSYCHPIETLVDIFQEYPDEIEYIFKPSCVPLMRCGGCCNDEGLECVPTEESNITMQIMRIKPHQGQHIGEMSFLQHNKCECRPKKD

[3] = target: T3, murine VEGF (form not stated) (mouse, UniProt Q00731-2 27-190); assay: BIAcore SPR, mVEGF108
T3 construct: also called mVEGF
T3 sequence (looked up): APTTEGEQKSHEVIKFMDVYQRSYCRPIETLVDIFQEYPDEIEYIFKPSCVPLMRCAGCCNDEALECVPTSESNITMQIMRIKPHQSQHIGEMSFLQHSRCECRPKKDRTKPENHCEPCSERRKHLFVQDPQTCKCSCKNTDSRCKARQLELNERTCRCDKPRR

[4] = target: T4, human VEGF (form not stated) (human, UniProt P15692-4 27-191); assay: competitive phage ELISA
T4 construct: also called hVEGF; hVEGF-A

[5] = target: T4, human VEGF (form not stated); assay: competitive phage ELISA; remark: listed apart in the source
[6] = target: T1, HER2 extracellular domain; assay: BIAcore SPR
[7] = target: T2, human VEGF109; assay: BIAcore SPR, steady state analysis
[8] = target: T4, human VEGF (form not stated); assay: competitive phage ELISA; remark: listed apart in the source
[9] = target: T1, HER2 extracellular domain; assay: competitive phage ELISA
[10] = target: T1, HER2 extracellular domain; assay: competition ELISA of phage-displayed Fab
[11] = target: T5, VEGF109 (receptor-binding domain of human VEGF, residues 8-109) (human, UniProt P15692 214-315); assay: calculated from ΔCp
T5 construct: also called hVEGF109
T5 sequence (looked up): T2 sequence (looked up)

[12] = target: T5, VEGF109 (receptor-binding domain of …); assay: calculated from the SPR KD
[13] = target: T5, VEGF109 (receptor-binding domain of …); assay: isothermal titration calorimetry
[14] = target: T5, VEGF109 (receptor-binding domain of …); assay: calculated from ΔStot, ΔSdesolv and ΔSrt
[15] = target: T2, human VEGF109; assay: SPR, captured IgG, antigen in solution, 30°C
[16] = target: T6, human death receptor 5 (human, UniProt O14763 56-210); assay: ELISA: antigen immobilized, hIgG 15 µg/mL, OD450; bars assigned by their left-to-right order
T6 construct: also called hDR5; DR5

[17] = target: T7, hVEGF-C (human, UniProt P49767 103-227); assay: as above
T7 construct: also called vascular endothelial growth factor C
T7 sequence (looked up): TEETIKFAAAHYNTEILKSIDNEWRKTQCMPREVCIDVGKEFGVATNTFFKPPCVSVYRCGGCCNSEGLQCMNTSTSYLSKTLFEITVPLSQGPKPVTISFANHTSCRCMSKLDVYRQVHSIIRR

[18] = target: T8, hVEGF-D (human, UniProt O43915 93-201); assay: as above
T8 construct: also called vascular endothelial growth factor D
T8 sequence (looked up): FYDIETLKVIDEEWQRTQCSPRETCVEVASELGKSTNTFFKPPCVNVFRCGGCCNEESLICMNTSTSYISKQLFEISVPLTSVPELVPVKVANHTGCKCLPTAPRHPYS

[19] = target: T9, epidermal growth factor receptor extracellular domain (human, UniProt P00533 25-645); assay: as above
T9 construct: extracellular domain; also called hEGFR

[20] = target: T10, bovine serum albumin (bovine, UniProt P02769 25-607); assay: as above
T10 construct: also called BSA

[21] = target: T11, HER3 ECD; assay: as above
T11 construct: also called ErbB3/HER3 extracellular domain

[22] = target: T7, hVEGF-C; assay: ELISA
[23] = target: T8, hVEGF-D; assay: ELISA

B1: D1 hIgG (bispecific antibody, V domains shown)
VH: not shown
VL: DIQMTQSPSSLSASVGDRVTITCRASQNVSKHVAWYQQKPGKAPKLLIYWGSYLYSGVPSRFSGSGSGTDFTLTISSLQPEDFATYYCQQSYSGPPTFGQGTKVEIK
notes: also called D1 (anti-hDR5/Her2)
B1 was tested, and the “IC50 (read off the curve)” value [1] was ~50 nM.

B2: 3_7 Fab (Fab, V domains shown)
VH: not shown
VL: DIQMTQSPSSLSASVGDRVTITCRASQYIWRYVAWYQQKPGKAPKLLIYWGSSLYSGVPSRFSGSGSGTDFTLTISSLQPEDFATYYCQQGLWYSPPTFGQGTKVEIK
With B2 the Kd [2] was 3 nM, the koff [2] was 0.0025 s⁻¹ and the kon [2] was 800000 M⁻¹ s⁻¹. For the same binder, the Kd [3] was 78 nM, the koff [3] was 0.0056 s⁻¹ and the kon [3] was 72000 M⁻¹ s⁻¹.

B3: 3-7 hIgG (antibody, V domains shown)
VH: not shown
VL: B2 VL
notes: also called 3-7 anti-hVEGF
B3 was tested, and the Kd [2] was 7 nM, the koff [2] was 0.0042 s⁻¹ and the kon [2] was 580000 M⁻¹ s⁻¹. For the same binder, the Kd [3] was 30 nM, the koff [3] was 0.015 s⁻¹ and the kon [3] was 500000 M⁻¹ s⁻¹.

B4: 3-4 (phage) (scFv, V domains shown, not shown: large carriers; small tags and cut ends)
VH: not shown
VL: B2 VL with Y28E, I29V, W30Y, R31S, W50P, G51A, L92F, Y94I, S95G
notes: also called c3-4
With B4 the IC50 [4] was 32 nM.

B5: 3-7 (phage) (scFv, V domains shown, not shown: large carriers; small tags and cut ends)
VH: not shown
VL: B2 VL
Work on B5 yielded an IC50 [4] of 16 nM.

B6: H7 (scFv, V domains shown)
VH: not shown
VL: B2 VL with Y28N, I29V, R31D, Y32W, W50P, G51A, L92W, W93Y, Y94I, S95A
notes: not shown: scFv linker carrying the gD tag and the phage coat fusion
For B6, the IC50 [5] was 60 nM.

B7: H4_N (bispecific antibody, V domains shown)
VH: not shown
VL: DIQMTQSPSSLSASVGDRVTITCRASQNIRSGSVAWYQQKPGKAPKLLIYWASYLYSGVPSRFSGSGSGTDFTLTISSLQPEDFATYYCQQHYTTPPTFGQGTKVEIK
notes: also called H4_N hIgG; H4_N Fab
In the case of B7, the Kd [6] is reported as 9.87 nM and 6 nM, the koff [6] is reported as 0.0013 s⁻¹ and the kon [6] is reported as 140000 M⁻¹ s⁻¹ and 230000 M⁻¹ s⁻¹. It also gave a Kd [7] of 550 nM.

B8: H4 (phage) (scFv, V domains shown)
VH: not shown
VL: B7 VL with S31T, A52G
Binder B8 has an IC50 [8] of 115 nM and an IC50 [9] of 0.54 nM.

B9: 20.49 (Fab, V domains shown)
VH: not shown
VL: DIQMTQSPSSLSASVGDRVTITCRASVDLPKSVSGYVAWYQQKPGKAPKLLIYWGSFLYSGVPSRFSGSGSGTDFTLTISSLQPEDFATYYCQQHFTSPPTFGQGTKVEIKR
In the case of B9, the IC50 [10] is reported as 2.6 nM.

B10: bH1-44 Fab (Fab, V domains shown)
VH: EVQLVESGGGLVQPGGSLRLSCAASGFNISGTYIHWVRQAPGKGLEWVARIYPSEGYTRYADSVKGRFTISADTSKNTAYLQMNSLRAEDTAVYYCSRWVGVGFYAMDYWGQGTLVTVSS
VL: B9 VL with V27Q, D28N, L29I, P30A, S32T, V33I, F96Y, T97S
notes: also called bH-44
B10 gave a ΔSdesolv [11] of 9.6e-05 kcal/mol, a ΔG [12] of -11.8 kcal/mol and a ΔH [13] of -7.1 kcal/mol. It also gave a ΔSconf [14] of -7.2e-05 kcal/mol.

B11: 35.95 (Fab, V domains shown)
VH: not shown
VL: B9 VL with S26I, V27E, D28N, F96Y
B11 showed an IC50 [10] of 4.3 nM.

B12: bH1-81 IgG (bispecific antibody, V domains shown)
VH: not shown
VL: B9 VL with V27Q, D28N, L29I, P30A, S32T, V33I, F96Y, T97S
notes: also called bH1-81 antibody; not shown: rest of the human IgG heavy-chain constant region
In the case of B12, the Kd [15] is reported as 41 nM, the binding result [16] is reported as “no binding (tested: 15 µg/mL)” and the binding result [17] is reported as “no binding (tested: 15 µg/mL)”. B12: no binding (tested: 15 µg/mL) [18]; no binding (tested: 15 µg/mL) [19]; no binding (tested: 15 µg/mL) [20]. B12: no binding (tested: 15 µg/mL) [21].

B13: 35.45 (Fab, V domains shown)
VH: not shown
VL: B9 VL with V27E, L29I, S32T, T97S
With B13 the IC50 [10] was 1.1 nM.

B14: 20.80 (Fab, V domains shown)
VH: not shown
VL: B9 VL with V27E, L29I, V33I, T97S
B14 showed an IC50 [10] of 2.2 nM.

B15: 35.74 (Fab, V domains shown)
VH: not shown
VL: DIQMTQSPSSLSASVGDRVTITCRAIQDIPKTITGYVAWYQQKPGKAPKLLIYWGSFLYSGVPSRFSGSGSGTDFTLTISSLQPEDFATYYCQQHFNSPPKFGQGTKVEIK
B15 was tested, and the IC50 [10] was 0.7 nM.

B16: 3-1 (Table 2) (Fab, V domains shown)
VH: not shown
VL: DIQMTQSPSSLSASVGDRVTITCRASQNVWDWVAWYQQKPGKAPKLLIYPASSLYSGVPSRFSGSGSGTDFTLTISSLQPEDFATYYCQQGWYIAPPTFGQGTKVEIKR
notes: also called 3-1 Fab
With B16 the binding result [6] was “no binding”, the Kd [3] was 105 nM and the koff [3] was 0.0036 s⁻¹.

B17: 3-1 hIgG (antibody, V domains shown)
VH: not shown
VL: B16 VL
notes: also called 3-1 IgG; not shown: rest of the human IgG heavy-chain constant region
B17: no binding [22]; no binding [23]; no binding [6]. The Kd [3] was 44 nM, the koff [3] was 0.016 s⁻¹ and the binding result [16] was “no binding (tested: 15 µg/mL)”. B17: no binding (tested: 15 µg/mL) [19]; no binding (tested: 15 µg/mL) [20].
